In patent US20210071139A1:

Legend:
[1] = biological target: TOX (UniProt Q66JW3); assay: TOX co-IP from EL4 nuclear extract, LC-MS/MS, MiST
[2] = biological target: TOX (UniProt Q66JW3); assay: anti-TOX IP from EL4 nuclear extract, LC-MS/MS, MiST vs IgG control

Sequence of TOX (Q66JW3 whole entry): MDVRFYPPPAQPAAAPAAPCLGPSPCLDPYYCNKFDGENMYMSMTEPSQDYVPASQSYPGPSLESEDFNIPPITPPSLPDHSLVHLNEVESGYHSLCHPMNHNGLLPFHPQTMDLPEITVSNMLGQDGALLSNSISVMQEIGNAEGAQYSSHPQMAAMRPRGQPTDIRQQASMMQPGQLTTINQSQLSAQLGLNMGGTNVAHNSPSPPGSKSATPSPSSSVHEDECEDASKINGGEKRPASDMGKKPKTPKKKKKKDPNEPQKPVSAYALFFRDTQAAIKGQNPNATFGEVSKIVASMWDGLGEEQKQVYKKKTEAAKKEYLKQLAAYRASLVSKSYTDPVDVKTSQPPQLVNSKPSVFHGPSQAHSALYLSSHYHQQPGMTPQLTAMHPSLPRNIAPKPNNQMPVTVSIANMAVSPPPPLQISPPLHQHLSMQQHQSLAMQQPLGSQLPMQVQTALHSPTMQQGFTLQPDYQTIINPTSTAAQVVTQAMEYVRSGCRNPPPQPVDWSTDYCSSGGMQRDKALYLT

Binder	Abundance [1]	MiST Score [1]	Reproducibility [1]	Specificity [1]	Abundance [2]	MiST Score [2]	Reproducibility [2]	Specificity [2]
Spty2d1 (protein, UniProt Q68FG3 1-682, looked up) Protein SPT2 homolog: MDFREILLIASKGQGVNHVPKRYSLAVGPPKKDPKVKGVQSAAVQAFLRRKEEELRQKALEEKKRKEELVKKRIELKHDKKARAMAKRTKDNFHGYDGIPVEEKTKKKQLVESHLNQGTDQEYDVEEEDFIDYNQAELDQDYEEEQEPPKAESKPKAPLKSAPSPMNFTDLLRLAEKKQFEPVEIKVVKKAEDRPLTAEELREREFLERKHRKKKPEPDAKLPPPVLKKAPSHKDIMGTKPSRGAGDRQLASKGLPFPQAEKKFRPSTASEKQAALSSPKSLPGERTKVGSGSSTQPSLREGHNRPVFNGAGKPRPSTCSPSVPKTPASGTQKSASEHKAKKPLPSHPSHSKPGPTVLSHNKSKSPGVRQPGSNSGSAPGQPNPGTARPTLSSGPVPRRQNGSSSSGPEQSAGGIRKLASNSHLSGRTLNGTNGPGRPASSSSGPGRPISGSAGSGRPVGSSGGPGQPVNNPHDLRRPMNSLSSPGRAVSGPGRSISGSIPAGRTVNSGPGRPVSSLGPGRAVSNPGLPTKPRCTVVSETISSKNIISRSSNGQINGMKPLLSGYRSAQGPQRLPFPTGYKRPREYEEDDDDEYDSEMDDFIEDEGEPQEEISKHIREIFGYDRKKYKDESDYALRYMESSWKEQQKEEAKSLRLGMQEDLEEMRREEEELKRRKAKKLKRH	1.04e-05	0.846	0.848	0.852				
Cwc27 (protein, UniProt Q3TKY6 2-469, looked up) Spliceosome-associated protein CWC27 homolog: SNIYIQEPPTNGKVLLKTTAGDIDIELWSKEAPKACRNFIQLCLEAYYDNTIFHRVVPGFIVQGGDPTGTGTGGESIYGAPFKDEFHSRLRFNRRGLVAMANAGPHDNGSQFFFTLGRADELNNKHTIFGKVTGDTVYNMLRLTEVDIDDEERPRNPHRIKSCEVLFNPFDDITPREIKKPKNEKPEEEVKKLKPKGTKNFSLLSFGEEAEEEEEEVNRVSQSMKGRSKSSHDLLKDDPHLSSVPAVESEKDDATGDLEDDGEDDSAERDEYMEDDEKNLMRERIAKRLKKDASASVKSAGDGEKKPASRSEELRKEARQLKRELLAAKQKKETAIKVEEGREEEEAAPDGAVAEYRREKQKYEALRKQQPKKGTSREDQTLALLSQFKSKLTQAITETPENSVPEAEVEDDEGWMSHVLQFEDKTRKVKDASMQDSDTFEIYDPRNPVNKRRREESKKLLREKKERR					1.14e-05	0.758	0.435	0.91
